Measurements reported in article PMC8221569.

Biological target: human histones H3.1–H4 tetramer (human) (UniProt P68431)
Experiment: ITC; MicroCal PEAQ-ITC, 20°C, 20 mM Tris-HCl pH 7.5, 500 mM NaCl; 300 μM DNAJC9 HBD in the syringe, 30 μM (dimers) H3-H4 in the cell; one set of sites model; n = 3

Sequence of DNAJC9 HBD (171–249), GST tag removed (Q8WXX5 171-249): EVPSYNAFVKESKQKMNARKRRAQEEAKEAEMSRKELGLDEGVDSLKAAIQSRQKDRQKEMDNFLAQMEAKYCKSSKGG

DNAJC9 HBD (171–249), GST tag removed (from UniProt Q8WXX5 171-249) (domain or fragment)
Kd: 39.5 nM
